Series [1] concerns the target T1, CXR/RXR heterodimer (Gallus gallus, UniProt A0A8V1AGS4;P28701 A0A8V1AGS4:1-375,P28701:1-467). As to the kind of experiment: EMSA; supershifted by anti-RXR; 40 mM KCl, pH 8.0, poly(dI-dC), room temperature. The note with it: tags: TNT T7 Quick Coupled; pSG5; label: 32P. The method, then:
(§1) Radiolabelled ADRES wild type (lanes 1-5) and mutant. (lanes 6-7) sequences were incubated With in vitro transcribed/translated CXR (lanes 3-7), chicken RXR (lanes 2 and 4-7) and anti-RXR antibody (Lane 5 and 7), as indicated. Arrows depict the unbound probe, the shifted CXR-RXR-probe complex, and the supershifted CXR-RXR-probe-anti-RXR antibody complex;
(§2) Chicken CXR and RXR proteins were expressed using the TNT T7 Quick Coupled Translation System (Promega) according to the manufacturers protocol. Probes were labeled by Klenow reaction in the presence of radiolabeled [α-³²P]ATP and purified over a Biospin 6 chromatography column. A volume of labeled oligonucleotide corresponding to 100,000 cpm was used for each reaction in 10 mM Tris-HCL (8.0)/40 mM KCl/0.05% Nonidet P40′/6% glycerol (vol./vol.)/1 mM DTT containing 0.2 μg of poly(dI-dC) and 2.5 μl in-vitro synthesized proteins as described previously (2, 7). To test for supershifts, 0.5 μl monoclonal anti-mouse-RXR rabbit antibody (kindly provided by P. Chambon, Université Louis Pasteur, Illkirch, France) were added to the reaction mix. This antibody has been previously tested for interactions with chicken RXR in Western blots (data not shown). The reaction mix was incubated for 20 min at room temperature and electrophoresed on a 6% polyacrylamide gel in 0.5× Tris/borate/EDTA buffer followed by autoradiography.
A general note: Mobility shift assays separate free from complexed probe on a gel.

Series [2] concerns the target T2, RXR (Gallus gallus, UniProt P28701 P28701:1-467).
T2 sequence: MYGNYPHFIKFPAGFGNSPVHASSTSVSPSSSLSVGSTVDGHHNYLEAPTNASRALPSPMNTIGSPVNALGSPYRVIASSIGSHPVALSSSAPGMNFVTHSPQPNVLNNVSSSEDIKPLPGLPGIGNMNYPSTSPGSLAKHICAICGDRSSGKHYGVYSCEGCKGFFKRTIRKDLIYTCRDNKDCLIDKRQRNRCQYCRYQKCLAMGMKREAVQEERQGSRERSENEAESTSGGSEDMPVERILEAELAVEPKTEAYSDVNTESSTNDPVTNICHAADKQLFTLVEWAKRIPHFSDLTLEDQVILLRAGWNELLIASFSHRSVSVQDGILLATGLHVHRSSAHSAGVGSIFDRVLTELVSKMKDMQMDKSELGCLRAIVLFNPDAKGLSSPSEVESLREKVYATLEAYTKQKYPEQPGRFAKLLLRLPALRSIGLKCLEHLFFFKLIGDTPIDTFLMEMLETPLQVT
Nature of the series: EMSA; RXR alone. The note with it: tags: TNT T7 Quick Coupled; pSG5; label: 32P. The method, then:
as §1, §2

For another series, the target named is T3, PXR (Homo sapiens, UniProt O75469 O75469:1-434).
T3 sequence: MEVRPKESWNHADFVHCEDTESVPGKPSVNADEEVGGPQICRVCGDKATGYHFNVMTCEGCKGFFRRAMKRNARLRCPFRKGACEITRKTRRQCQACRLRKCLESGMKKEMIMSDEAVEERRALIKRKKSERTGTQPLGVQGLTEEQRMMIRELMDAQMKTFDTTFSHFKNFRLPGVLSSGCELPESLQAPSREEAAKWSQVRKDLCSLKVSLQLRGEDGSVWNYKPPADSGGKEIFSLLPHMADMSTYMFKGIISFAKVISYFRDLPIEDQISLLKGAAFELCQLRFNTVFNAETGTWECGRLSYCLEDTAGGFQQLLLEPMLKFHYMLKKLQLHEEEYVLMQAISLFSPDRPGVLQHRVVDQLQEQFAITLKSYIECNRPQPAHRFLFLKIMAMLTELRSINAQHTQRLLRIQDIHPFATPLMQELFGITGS
Nature of the series: EMSA; PXR alone. The settings on record: tags: TNT reticulocyte lysate; label: radiolabel. From the text:
(§3) FIG. 19 depicts the results of an electrophoretic mobility shift assay, assaying the ability of human PXR and human CAR to bind to the hA174 and hA240 elements. Binding of these nuclear receptors happens in a heterodimeric state with the human 9-cis retinoic acid receptor RXRα. From expression plasmids encoding human RXRα, […] or CAR, receptor protein was made in vitro using the TNT reticulocyte lysate coupled transcription/translation system (Promega Corp.).
(§4) Lanes 1-4: Wildtype hA174 was incubated with no receptor (mock transcription/translation) or with RXRα, PXR or CAR alone. No complex is observed using single receptors. Lanes 5 and 7: Wild-type hA174 was incubated with RXRα and PXR or RXRα and CAR, upon which complex formation between radiolabeled probe and protein is observed. Lanes 6 and 8: Same conditions as in lanes 5 and 7, but instead of wild-type hA174, a radiolabeled probe was used where the half-site 2 was mutated. No complex is formed anymore.

In a further series the target is RXRalpha (Homo sapiens, UniProt P19793 P19793:1-462). As to the kind of experiment: EMSA; RXRalpha alone. The note with it: tags: TNT reticulocyte lysate; label: radiolabel.
Excerpt: as §3, §4

The next series has as its target CAR/RXRalpha heterodimer (Homo sapiens, UniProt Q14994;P19793 Q14994:1-352,P19793:1-462). Nature of the series: EMSA. The note with it: tags: TNT reticulocyte lysate; label: radiolabel.
Excerpt: as §3, §4

For the next series, the target named is PXR/RXRalpha heterodimer (Homo sapiens, UniProt O75469;P19793 O75469:1-434,P19793:1-462). As to the kind of experiment: EMSA. The note with it: tags: TNT reticulocyte lysate; label: radiolabel.
Excerpt: as §3, §4

The next series concerns the target T4, CAR (Homo sapiens, UniProt Q14994 Q14994:1-352).
T4 sequence: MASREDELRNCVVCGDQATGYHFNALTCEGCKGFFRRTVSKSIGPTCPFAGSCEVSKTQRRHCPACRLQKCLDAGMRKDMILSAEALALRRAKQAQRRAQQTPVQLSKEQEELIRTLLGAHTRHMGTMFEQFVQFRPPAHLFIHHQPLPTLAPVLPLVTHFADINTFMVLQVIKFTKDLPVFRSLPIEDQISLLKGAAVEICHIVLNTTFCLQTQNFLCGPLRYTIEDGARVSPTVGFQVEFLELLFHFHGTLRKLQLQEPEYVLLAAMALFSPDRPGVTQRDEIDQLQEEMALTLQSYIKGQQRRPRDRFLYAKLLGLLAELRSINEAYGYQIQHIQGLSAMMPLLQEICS
Nature of the series: EMSA; CAR alone. The settings on record: tags: TNT reticulocyte lysate; label: radiolabel.
Excerpt: as §3, §4

The target of series [3] is T5, human 9-cis retinoic acid receptor RXRα (human, UniProt P19793 1-462).
T5 construct: also called human RXRα
T5 sequence (looked up): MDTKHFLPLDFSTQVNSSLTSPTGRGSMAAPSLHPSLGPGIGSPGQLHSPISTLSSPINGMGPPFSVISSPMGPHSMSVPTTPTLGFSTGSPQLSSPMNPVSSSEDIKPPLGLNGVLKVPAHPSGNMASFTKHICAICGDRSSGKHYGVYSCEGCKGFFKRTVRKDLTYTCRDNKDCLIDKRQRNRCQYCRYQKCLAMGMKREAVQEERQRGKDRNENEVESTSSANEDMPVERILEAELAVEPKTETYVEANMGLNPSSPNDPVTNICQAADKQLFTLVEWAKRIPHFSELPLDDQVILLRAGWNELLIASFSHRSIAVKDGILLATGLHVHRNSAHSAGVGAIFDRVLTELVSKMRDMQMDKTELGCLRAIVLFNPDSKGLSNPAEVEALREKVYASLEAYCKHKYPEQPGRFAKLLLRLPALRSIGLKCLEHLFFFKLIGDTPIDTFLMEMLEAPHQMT
Nature of the series: electrophoretic mobility shift, hA240 probe; no complex with single receptors (FIG. 19B).
Excerpt: as §3
FIG. 19B: Instead of the hA174 fragment, wild-type or DR4-mutant hA240 fragment was radiolabeled and used as probe. Lanes 1-4: Wildtype hA240 was incubated with no receptor (mock transcription/translation) or with RXRα, PXR or CAR alone. No complex is observed using single receptors. Lanes 5 and 7: Wild-type hA240 was incubated with RXRα and PXR or RXRα and CAR, upon which complex formation between radiolabeled probe and protein is observed. Lanes 6 and 8: Same conditions as in lanes 5 and 7, but instead of wild-type probe, radiolabeled hA240DR4(2) mutant was used. No complex is formed.

Series [4] has as its target T2, RXR. Nature of the series: EMSA; RXR alone. The settings on record: tags: TNT T7 Quick Coupled; pSG5; label: 32P. The method, then:
(§5) Radiolabelled ADRES wild type (lanes 1-5) and mutant (lanes 6-7) sequences were incubated with in vitro transcribed/translated CXR (lanes 3-7), chicken RXR (lanes 2 and 4-7) and anti-RXR antibody (lane 5 and 7), as indicated. Arrows depict the unbound probe, the shifted CXR-RXR-probe complex, and the supershifted CXR-RXR-probe-anti-RXR antibody complex;
as §2
This is another data set of the same source.

The target in series [5] is T1, CXR/RXR heterodimer. As to the kind of experiment: EMSA; supershifted by anti-RXR. The settings on record: tags: TNT T7 Quick Coupled; pSG5; label: 32P. The method, then:
as §5, §2

The target of series [6] is T1, CXR/RXR heterodimer. Nature of the series: EMSA; binding virtually eliminated. The note with it: tags: TNT T7 Quick Coupled; pSG5; label: 32P. The method, then:
as §1, §2

Experimental findings from patent US20050118601A1, “Enhancer sequence of the 5-aminolevulinic acid synthase gene” (priority 2002, published 2005) are described below.

T1 sequence (chain, as listed by the source): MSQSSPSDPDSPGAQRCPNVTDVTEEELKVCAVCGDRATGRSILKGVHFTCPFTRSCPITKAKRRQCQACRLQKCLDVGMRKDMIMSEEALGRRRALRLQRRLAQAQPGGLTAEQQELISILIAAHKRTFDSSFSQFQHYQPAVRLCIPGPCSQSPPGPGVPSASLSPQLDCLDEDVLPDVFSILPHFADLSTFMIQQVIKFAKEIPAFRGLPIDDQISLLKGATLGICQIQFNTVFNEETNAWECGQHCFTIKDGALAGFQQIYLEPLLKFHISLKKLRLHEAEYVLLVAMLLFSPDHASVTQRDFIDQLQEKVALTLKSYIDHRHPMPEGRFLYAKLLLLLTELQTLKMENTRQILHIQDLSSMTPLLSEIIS

B1: 176 bp ADRES (dsDNA)
DNA 1: GGGCTCCATCGGCCTCTTCAGGTTATTGCTATGTTCAACTCGTGTGACCTTCCTCCCTGTTTTCAAGGTTCTGATAACAAACTTCTAGGACAGCCTGGTGACCTTTGGCTCAGCTTCCTCTTTAAACTCCGGTGGCTTTTGCTTCATTGCCTAGTTGTTACCCAGCAGTAAAGATC
DNA 2: GATCTTTACTGCTGGGTAACAACTAGGCAATGAAGCAAAAGCCACCGGAGTTTAAAGAGGAAGCTGAGCCAAAGGTCACCAGGCTGTCCTAGAAGTTTGTTATCAGAACCTTGAAAACAGGGAGGAAGGTCACACGAGTTGAACATAGCAATAACCTGAAGAGGCCGATGGAGCCC
As for B1, the binding result with CXR/RXR heterodimer [1] is reported as “binds”; with RXR [2] it was “no binding”.

B2: hA174 (dsDNA)
DNA 1: GCGCAAAGTCAACACAAGCCTCTCCACCGTGTGTCCATGTTTATGTGTATGCGCTGTGCCCCGTCATGCCACCTGGACGCAGGGACTCCAGTGACCTCTCCTTGCACAAGCCTCTGCTGGTTTGGGAAAGATTGGCATGACATCAGCCAAGCTCTGGCCTTGCCTTTTTTCCCT
DNA 2: AGGGAAAAAAGGCAAGGCCAGAGCTTGGCTGATGTCATGCCAATCTTTCCCAAACCAGCAGAGGCTTGTGCAAGGAGAGGTCACTGGAGTCCCTGCGTCCAGGTGGCATGACGGGGCACAGCGCATACACATAAACATGGACACACGGTGGAGAGGCTTGTGTTGACTTTGCGC
Consider B2, for which the binding result is on record as “no binding” with PXR; “no binding” with RXRalpha; “binds” with CAR/RXRalpha heterodimer; “binds” in the series with PXR/RXRalpha heterodimer; “no binding” with CAR.

B3: human pregnane X receptor (PXR) (receptor, UniProt O75469 1-434, looked up)
chain: MEVRPKESWNHADFVHCEDTESVPGKPSVNADEEVGGPQICRVCGDKATGYHFNVMTCEGCKGFFRRAMKRNARLRCPFRKGACEITRKTRRQCQACRLRKCLESGMKKEMIMSDEAVEERRALIKRKKSERTGTQPLGVQGLTEEQRMMIRELMDAQMKTFDTTFSHFKNFRLPGVLSSGCELPESLQAPSREEAAKWSQVRKDLCSLKVSLQLRGEDGSVWNYKPPADSGGKEIFSLLPHMADMSTYMFKGIISFAKVISYFRDLPIEDQISLLKGAAFELCQLRFNTVFNAETGTWECGRLSYCLEDTAGGFQQLLLEPMLKFHYMLKKLQLHEEEYVLMQAISLFSPDRPGVLQHRVVDQLQEQFAITLKSYIECNRPQPAHRFLFLKIMAMLTELRSINAQHTQRLLRIQDIHPFATPLMQELFGITGS
notes: also called human PXR; hPXR
For the molecule B3, the binding result in [3] was “binds”.

B4: 167 bp ADRES (dsDNA)
DNA 1: CTGCCTCCAGTCCTGAACTTTCTCTGCTGGGATGAGCAGAGTTCACGCTCGGCTGAACTCGTGACTGTGTCAACAGGGGGCATGAAGATCAGCACCAGGCAAAGGTGAGCGGAGTGCACAAGAATGAGGCAGAGACCTTTGGGACAAAGAGTTCCCCACCCGTGGGG
DNA 2: CCCCACGGGTGGGGAACTCTTTGTCCCAAAGGTCTCTGCCTCATTCTTGTGCACTCCGCTCACCTTTGCCTGGTGCTGATCTTCATGCCCCCTGTTGACACAGTCACGAGTTCAGCCGAGCGTGAACTCTGCTCATCCCAGCAGAGAAAGTTCAGGACTGGAGGCAG
For the molecule B4, the binding result in the series with RXR [4] is reported as “no binding”; in the series with CXR/RXR heterodimer [5], “binds”.

B5: 176 bp ADRES DR4-1/DR5 double mutant (dsDNA)
DNA 1: GGGCTCCATCGGCCTCTTCAGGTTATTGCTATGTTGGTATCGTGTCGAGTTCCTCCCTGTTTTCAAGGTTCTGATAACAAACTTCTAGGACAGCCTGGCTGCAGTTGGCGAATTCTCCTCTTTAAACTCCGGTGGCTTTTGCTTCATTGCCTAGTTGTTACCCAGCAGTAAAGATC
DNA 2: GATCTTTACTGCTGGGTAACAACTAGGCAATGAAGCAAAAGCCACCGGAGTTTAAAGAGGAGAATTCGCCAACTGCAGCCAGGCTGTCCTAGAAGTTTGTTATCAGAACCTTGAAAACAGGGAGGAACTCGACACGATACCAACATAGCAATAACCTGAAGAGGCCGATGGAGCCC
As to B5, in the series with CXR/RXR heterodimer [6], the binding result is “no binding”.
